The target in assay [1] is T1, unknown natural tumor antigen of the autologous tumor organoids of patient CRC1 peptide on (human). Briefly: CD137 sort of CD8+ oeT cells after 24 h restimulation with autologous tumor organoids (cells that express the antigen), single-cell RT-PCR; 1.2% in TIL alone; ex vivo sorted cells. The settings on record: chains alpha TRAV36/DV7*04 TRAJ30*01 CDR3:beta TRBV6-5*01 TRBJ2-2*01 CDR3.

The target in assay [2] is T2, unknown natural tumor antigen of the autologous tumor organoids of patient CRC3 peptide on (human). Briefly: CD137 sort of CD8+ oeT cells after 24 h restimulation with autologous tumor organoids (cells that express the antigen), single-cell RT-PCR; 0.4% in TIL alone; ex vivo sorted cells. The settings on record: chains alpha TRAV8-6*02 TRAJ20*01 CDR3:beta TRBV6-1*01 TRBJ1-3*01 CDR3.

Assay [3] has as its target T3, unknown natural tumor antigen of the autologous tumor organoids of patient CRC2 peptide on (human). Briefly: CD137 sort of CD8+ oeT cells after 24 h restimulation with autologous tumor organoids (cells that express the antigen), single-cell RT-PCR; 1.1% in TIL alone; ex vivo sorted cells.
Assay [4] concerns the target T4, unknown natural tumor antigen of the autologous tumor organoids of patient CRC4 peptide on (human). Kind of assay: CD137 sort of CD8+ oeT cells after 24 h restimulation with autologous tumor organoids (cells that express the antigen), single-cell RT-PCR; 0% in TIL alone; ex vivo sorted cells.
For assay [5], the target named is T2, unknown natural tumor antigen of the …. Kind of assay: CD137 sort of CD8+ oeT cells after 24 h restimulation with autologous tumor organoids (cells that express the antigen), single-cell RT-PCR; 1.3% in TIL alone; ex vivo sorted cells. The following applies: chains alpha TRAV10*01 TRAJ16*02 CDR3:beta TRBV10-3*02 TRBJ2-1*01 CDR3.
In assay [6] the target is T1, unknown natural tumor antigen of the …. Kind of assay: CD137 sort of CD8+ oeT cells after 24 h restimulation with autologous tumor organoids (cells that express the antigen), single-cell RT-PCR; 3.6% in TIL alone; ex vivo sorted cells. The settings on record: chains alpha TRAV35*02 TRAJ10*01 CDR3:beta TRBV28*01 TRBJ2-2*01 CDR3.
The target in assay [7] is T3, unknown natural tumor antigen of the …. Briefly: CD137 sort of CD8+ oeT cells after 24 h restimulation with autologous tumor organoids (cells that express the antigen), single-cell RT-PCR; 2.8% in TIL alone; ex vivo sorted cells. The settings on record: chains alpha TRAV23/DV6*01 TRAJ45*01 CDR3:beta TRBV9*01 TRBJ2-1*01 CDR3.
The target is the same in assay [8]. Kind of assay: CD137 sort of CD8+ oeT cells after 24 h restimulation with autologous tumor organoids (cells that express the antigen), single-cell RT-PCR; 0.5% in TIL alone; ex vivo sorted cells.
For assay [9], the target named is T2, unknown natural tumor antigen of the …. Kind of assay: CD137 sort of CD8+ oeT cells after 24 h restimulation with autologous tumor organoids (cells that express the antigen), single-cell RT-PCR; 3% in TIL alone; ex vivo sorted cells. The following applies: chains alpha TRAV14/DV4*01 TRAJ45*01 CDR3:beta TRBV20-1*01 TRBJ2-1*01 CDR3.
Assay [10] has the same target. Kind of assay: CD137 sort of CD8+ oeT cells after 24 h restimulation with autologous tumor organoids (cells that express the antigen), single-cell RT-PCR; 0% in TIL alone; ex vivo sorted cells. The following applies: chains alpha TRAV10*01 TRAJ4*01 CDR3:beta TRBV9*01 TRBJ1-2*01 CDR3.
Assay [11] concerns the target T1, unknown natural tumor antigen of the …. Kind of assay: CD137 sort of CD8+ oeT cells after 24 h restimulation with autologous tumor organoids (cells that express the antigen), single-cell RT-PCR; 4.3% in TIL alone; ex vivo sorted cells. The following applies: chains alpha TRAV35*02 TRAJ10*01 CDR3:beta TRBV6-1*01 TRBJ1-2*01 CDR3.
Assay [12] has the same target. Kind of assay: CD137 sort of CD8+ oeT cells after 24 h restimulation with autologous tumor organoids (cells that express the antigen), single-cell RT-PCR; 2.5% in TIL alone; ex vivo sorted cells. The following applies: chains alpha TRAV24*01 TRAJ12*01 CDR3:beta TRBV28*01 TRBJ1-2*01 CDR3.
The target of assay [13] is T4, unknown natural tumor antigen of the …. Kind of assay: CD137 sort of CD8+ oeT cells after 24 h restimulation with autologous tumor organoids (cells that express the antigen), single-cell RT-PCR; 2.4% in TIL alone; ex vivo sorted cells. The settings on record: chains alpha TRAV20*01 TRAJ4*01 CDR3:beta TRBV12-3*01 TRBJ1-5*01 CDR3.

These results are taken from publication PMC11219989.

B1: TCR5 (peptide)
chain 1: AVSRDDKII
chain 2: ASSYVGNTGELF
In assay [1], B1 had a frequency among sorted CD8+CD137+ PDO(T)-oeT cells of 5%.

B2: TCR15 (peptide)
chain 1: AVSGRSNDYKLS
chain 2: ASSEKRQGAGNTIY
B2 showed a frequency among sorted CD8+CD137+ PDO(T)-oeT cells in [2] of 3%.

B3: TCR6 (peptide)
chain 1: AVGDNFNKFY
chain 2: ASSYVGNTGELF
With B3, the frequency among sorted CD8+CD137+ PDO(T)-oeT cells in [3] (chains alpha TRAV8-3*01 TRAJ21*01 CDR3:beta TRBV28*01 TRBJ2-2*01 CDR3) stood at 13.4%.

B4: TCR19 (peptide)
chain 1: AVGRGYGQNFV
chain 2: ASSQDGGLNEKLF
As for B4, the frequency among sorted CD8+CD137+ PDO(T)-oeT cells in assay [4] (chains alpha TRAV22*01 TRAJ26*01 CDR3:beta TRBV4-3*01 TRBJ1-4*01 CDR3) worked out at 7.7%.

B5: TCR12 (peptide)
chain 1: VSGFSDGQKLL
chain 2: ATTKTGERPDEQF
In assay [5], B5 showed a frequency among sorted CD8+CD137+ PDO(T)-oeT cells of 8%.

B6: TCR18 (peptide)
chain 1: AVRDEGARLM
chain 2: ASSIFSGTGGADTQY
In the case of B6, in [4] (chains alpha TRAV3*01 TRAJ31*01 CDR3:beta TRBV9*01 TRBJ2-3*01 CDR3), the frequency among sorted CD8+CD137+ PDO(T)-oeT cells stood at 10.3%.

B7: TCR2 (peptide)
chain 1: AGVTGGGNKLT
chain 2: ASSLTSASGELF
Consider B7, for which the frequency among sorted CD8+CD137+ PDO(T)-oeT cells in [6] was determined as 17.8%.

B8: TCR8 (peptide)
chain 1: ALKAGGGASKLT
chain 2: ASSVGGGVDEQF
B8: the frequency among sorted CD8+CD137+ PDO(T)-oeT cells in assay [7] is 9.3%.

B9: TCR10 (peptide)
chain 1: AASPPGGSQGNLI
chain 2: ASSHRTSSRGEQF
In [8] (chains alpha TRAV13-1*01 TRAJ42*01 CDR3:beta TRBV4-1*01 TRBJ2-1*01 CDR3), B9 returned a frequency among sorted CD8+CD137+ PDO(T)-oeT cells of 3.1%.

B10: TCR7 (peptide)
chain 1: AMREGADSWGKFQ
chain 2: ASSLHGRGDEKLF
As to B10, the frequency among sorted CD8+CD137+ PDO(T)-oeT cells in assay [8] (chains alpha TRAV14/DV4*03 TRAJ24*03 CDR3:beta TRBV28*01 TRBJ1-4*01 CDR3) was found to be 12.4%.

B11: TCR13 (peptide)
chain 1: ANDSGGGADGLT
chain 2: SARGLLGGRAREQF
For B11, in assay [9], the frequency among sorted CD8+CD137+ PDO(T)-oeT cells was 4%.

B12: TCR14 (peptide)
chain 1: VVSFSGGYNKLI
chain 2: ASSVGDRDYGYT
B12 showed a frequency among sorted CD8+CD137+ PDO(T)-oeT cells in assay [10] of 4%.

B13: TCR20 (peptide)
chain 1: AENMGFQKLV
chain 2: AWTQGANGYT
In turn, B13 showed a frequency among sorted CD8+CD137+ PDO(T)-oeT cells in assay [4] (chains alpha TRAV13-2*01 TRAJ8*01 CDR3:beta TRBV30*01 TRBJ1-2*01 CDR3) of 7.1%.

B14: TCR1 (peptide)
chain 1: AGVTGGGNKLT
chain 2: ASSEGTGFYGYT
B14: the frequency among sorted CD8+CD137+ PDO(T)-oeT cells in [11] turned out to be 25.6%.

B15: TCR9 (peptide)
chain 1: AVRGTLSGGSYIPT
chain 2: ASSATSASGELF
On to B15, for which, in assay [3] (chains alpha TRAV1-2*01 TRAJ6*01 CDR3:beta TRBV28*01 TRBJ2-2*01 CDR3), the frequency among sorted CD8+CD137+ PDO(T)-oeT cells is 8.2%.

B16: TCR3 (peptide)
chain 1: APWMDSSYKLI
chain 2: ASSIGGHDGYT
B16: the frequency among sorted CD8+CD137+ PDO(T)-oeT cells in assay [12] is 6.7%.

B17: TCR17 (peptide)
chain 1: AVFSGGYNKLI
chain 2: ASSLEFYSNQPQH
In assay [13], B17 had a frequency among sorted CD8+CD137+ PDO(T)-oeT cells of 13.5%.
